Data: patent US11904007B2, “Protection from stress, anxiety, neuroinflammation, and cognitive dysfunction” (The Regents of the University of Colorado, a body corporate, priority 2018, dated 2024)

What was measured:
Type in all cases: in vivo, rat
IL-4 = assay: Blocking of M. vaccae effects on hippocampal gene expression by ICM soluble IL-4 receptor alpha; conditions: 5 μg, ICM injection after M. vaccae at day −21, −14, −7
Experimental: FIG. 25 is a schematic depicting the experimental design configured to develop and validate IL-4 blocking methods in the brain. The schematic depicts the timing of M. vaccae or BBS treatment and intra-cisterna magna (ICM) injections containing soluble IL-4 receptor alpha or vehicle followed by tissue collection and analysis.
FIG. 26A-C show rtPCR detection in collection tissue samples after ICM injections for IL-4 (A); CD200R1 (B); and CD206 (C).
In this embodiment, rats were administered M. vaccae or BBC (at day −21, −14, and −7) and then administered 5 μg of soluble IL-4 receptor alpha or a control vehicle.

Cd200r1 = assay: Hippocampal Cd200r1 mRNA expression (real time RT-PCR); conditions: 100 ng i.c.m.
Experimental: (§1) Animals: Adult male Sprague-Dawley rats (60-90 d old) were pair-housed with food and water available ad libitum. The colony was maintained at 22° C. on a 12 h light/dark cycle (lights on at 07:00 h).
(§2) M. vaccae treatment: M. vaccae is a saprophytic environmental mycobacterium, which we have used previously to mitigate stress-induced anxiety-like behavior and peripheral proinflammatory responses. Briefly, whole heat-killed M. vaccae (strain NCTC 11659, batch ENG 1; Bio Elpida; 10 mg/ml) was suspended in sterile borate-buffered saline (BBS) to yield a final concentration of 1 mg/ml. Sterile BBS served as the vehicle control. Consistent with our prior work with M. vaccae, experimental animals received 3× subcutaneous (s.c.) immunizations with 0.1 mg whole heat-killed M. vaccae suspension (0.1 ml) or vehicle (0.1 ml). Injections occurred at −21 d, −14 d and −7 d prior to stress exposure. FIG. 5 provides a timeline of M. vaccae treatment relative to stress exposure, behavioral testing and tissue/microglia collection.
(§3) Recombinant rat IL4 (rIL4) treatment: Vehicle (sterile 1× PBS+0.1% BSA) or rIL4 (100 ng dissolved in vehicle; R & D Systems) was injected intra-cisterna magna (i.c.m.; 5 μl total volume). Two and 24 h post-injection, hippocampus was collected for gene expression analysis of IL4-sensitive target genes. […]

Mrc1 = assay: Hippocampal Mrc1 mRNA expression (real time RT-PCR); conditions: 100 ng i.c.m., 2 h post-injection
Experimental: as §1, §2, §3

Cd200 = assay: Hippocampal Cd200 mRNA expression (real time RT-PCR); conditions: 100 ng i.c.m., 2 h and 24 h post-injection
Experimental: as §1, §2, §3

Row | Molecule | Effect of M. vaccae administration on hippocampal gene expression (IL-4) | Cd200r1 expression in hippocampus (Cd200r1; 2 h post-injection) | Cd200r1 expression in hippocampus (Cd200r1; 24 h post-injection) | Mrc1 expression in hippocampus (Mrc1) | Cd200 expression in hippocampus (Cd200)
1 | soluble IL-4 receptor alpha: soluble form of IL-4 receptor alpha, can inhibit IL4-mediated cell proliferation; ICM injection | blocked |  |  |  | 
2 | rIL4: Recombinant rat IL4 (R & D Systems), injected intra-cisterna magna (protein, UniProt P20096 25-147, looked up) Interleukin-4: CNDSPLREIINTLNQVTEKGTPCTEMFVPDVLTATRNTTENELICRASRVLRKFYFPRDVPPCLKNKSGVLGELRKLCRGVSGLNSLRSCTVNESTLTTLKDFLESLKSILRGKYLQSCTSMS |  | significant increase | significant increase | significant increase | failed to significantly alter
